From patent US7521540B2, “CYR61 compositions and methods” (Munin Corporation, priority 1996, dated 2009)

Tests used:
[1] = tested on: Focal Adhesion Kinase; test: Focal adhesion induction; assay type: cell-based
Text: In addition, Cyr61 induces focal adhesion, i.e., cell surface foci for cytoskeletal attachments. Focal adhesion is effected by cell surface protein complexes or clusters. These protein clusters are complex, including a variety of receptors from the integrin family, and a variety of protein kinases. The induction of focal adhesion by Cyr61 is reflected in the capacity of Cyr61 to induce particular members of these cell surface protein clusters. […] Moreover, indirect immunofluorescence studies have shown that Cyr61 is bound to a receptor (see above) in focal adhesive plaques. The plaques, in turn, are characteristic of focal adhesion protein complexes. Focal Adhesion Kinase, Paxillin, and αVβ3 Integrin are co-localized to the focal adhesion plaques produced by focal adhesion complex formation induced by Cyr61. These focal adhesion protein complexes bind Cyr61 at the cell surface; the complexes also attach internally to the cytoskeleton. Therefore, murine Cyr61, and human Cyr61 (see below), are, in part, adhesion molecules, a characteristic distinguishing Cyr61 from conventional growth factors. […] Subsequently, bound Cyr61 is detected, e.g., by anti-Cyr61 antibody that is labeled using techniques known in the art, such as radiolabelling, fluorescent labeling, or the use of enzymes catalyzing calorimetric reactions. […]

[2] = tested on: Bovine aortic smooth muscle cells (BASM cells); test: Smooth muscle cell adhesion assay; assay type: cell-based
Experimental: Cell adhesion assays were also performed on smooth muscle cells. Bovine aortic smooth muscle cells (BASM cells) were subjected to the cell adhesion assay described above in the context of assaying fibroblasts. […] To identify particular integrin, receptors mediating the Cyr61 induction of BASM cell adhesion, antibody studies were conducted using anti-integrin antibodies recognizing specific integrins. […] Thus, integrin α6β1 mediates Cyr61-induced adhesion of smooth muscle cells. It is expected that Cyr61 polypeptides that include the heparan binding domain IV will induce adhesion of any mammalian smooth muscle cell.

[3] = tested on: Limb mesenchymal cells; test: Limb bud mesenchymal cell attachment; assay type: cell-based, mouse; conditions: within 1 hour of plating
Experimental: Cyr61, fibronectin (Gibco), or tenascin (Gibco) were diluted in 0.1% protease-free bovine serum albumin (BSA) in PBS with 0.5 mM PMSF, to a final concentrations of 10 or 50 μg/ml. A 10 μl drop/well was placed in a non-tissue culture treated 24-well plate (Corning), and incubated at room temperature for 2 hours. The wells were blocked with 1% BSA in PBS for 1 hour at room temperature, and rinsed with serum-free MEM (Modified Eagle's Medium). Limb mesenchymal cells, suspended at 5×10^5 cell/ml in serum-free MEM, were added at a volume of 400 μl/well, and incubated at 37° C., 5% CO2 for 1 or 3 hours. At each time point, the cell suspension was removed, the wells were rinsed with MEM and the remaining adherent cells were photographed.

[4] = tested on: Limb mesenchymal cells; test: Limb mesenchymal cell proliferation in micromass culture; assay type: cell-based, mouse
Experimental: Ahrens et al., Dev. Biol. 60:69-82 (1977), has reported that these cells, in micromass culture, undergo chondrogenesis in a manner similar to the in vivo process. Mesenchyme cells were obtained from mouse embryonic limb buds by trypsin digestion (1 mg/ml, 1:250 dilution of porcine pancreatic trypsin, Sigma Chemical Co.). Cells were explanted in plastic tissue culture wells and allowed to attach for 2 hours at 37° C., 5% CO2. Cells were then incubated for 24 hours at 37° C., 5% CO2 in MEM with 10% FBS, penicillin (50 U/ml), and streptomycin (50 μg/ml). At this point, the composition of the medium was changed by substituting 4% NuSerum (Collaborative Biomedical Products, Inc.) for 10% FBS. Individual cultures then received Cyr61, fibronectin, heparin (each at approximately 1 μg/ml) or buffer as a negative control. […] Harlow et al.
Cell proliferation during the 4 day culture period was determined by counting cell number and by incorporation of [^3H]-thymidine. To determine cell number, cells were harvested by trypsin/EDTA (Sigma) and counted with a Coulter counter. In parallel cultures, [^3H]-thymidine (1 μCi/ml; ICN) was added to the media for 18 hours and incorporation in the TCA-insoluble layer was determined by liquid scintillation counting.

[5] = tested on: HUVE cells; test: Cell spreading assay; assay type: cell-based, human; conditions: dishes coated with 10 μg/ml, 2 hours
Experimental: In another embodiment of the invention, the effect of murine Cyr61 on cell morphogenesis was assessed by a cell spreading assay. Polystyrene Petri dishes were coated with 2 ml of a 10 μg/ml solution of Cyr61 or fibronectin in PBS with 0.1% BSA and treated as described above. A third plate was treated with BSA and served as a control. Each dish received 7×10^6 cells and was incubated for 2 hours. Cell spreading was analyzed by microscopy at 100-fold magnification.

[6] = tested on: Human Microvascular Endothelial Cells; test: In vitro migration assay for angiogenesis inhibitors; assay type: cell-based; conditions: bFGF 10 ng/ml; Cyr61; IGF-II
Experimental: As in the preceding Example, human microvascular endothelial cells (Clonetics) were used. In one series of assays, several carbohydrates and carbohydrate derivatives were analyzed. These compounds included 10 mM mannose, 10 mM mannose-6-phosphate, and 10 mM galactose. […] Cyr61 plus galactose induced the migration of approximately 74 cells per set of three high-powered fields. […] The angiogenic activity of basic FGF (10 ng/ml) was also tested, as described above, with and without mannose-6-phosphate. In the presence of 10 mM mannose-6-phosphate, bFGF induced 51 cells per set of three high-powered fields to migrate; in its absence, bFGF induced the migration of approximately 52 cells. […] The effect of mannose-6-phosphate on IGF II activity was anticipated because mannose-6-phosphate is known to compete with IGF II for their common receptor (the IGF II receptor). […] Moreover, because there is an essentially perfect correlation between the in vitro migration assay and the in vivo angiogenesis assay, described below, mannose-6-phosphate has been identified as an inhibitor of angiogenesis based on the results of the assay disclosed herein. Accordingly, the invention contemplates a method of inhibiting angiogenesis comprising the step of administering an inhibitor the angiogenic activity of Cyr61 such as mannose-6-phosphate. […]

[7] = tested on: macrophages; test: Macrophage binding, antibody inhibition studies; assay type: cell-based
Text: It is also expected that Cyr61 will promote the migration of macrophages, thus serving a role in attracting and retaining macrophages at the site of a wound. Consequently, Cyr61 is expected to play a role in the inflammatory response of mammals, and modulation of Cyr61 activity is expected to influence the inflammatory response.

B1: Cyr61: Cysteine-rich ECM signaling protein; murine sequence SEQ ID NO:2, recombinant from Baculovirus-infected Sf9 cells (protein, listed as Mus musculus)
chain: MSSSTFRTLAVAVTLLHLTRLALSTCPAACHCPLEAPKCAPGVGLVRDGCGCCKVCAKQLNEDCSKTQPCDHTKGLECNFGASSTALKGICRAQSEGRPCEYNSRIYQNGESFQPNCKHQCTCIDGAVGCIPLCPQELSLPNLGCPNPRLVKVSGQCCEEWVCDEDSIKDSLDDQDDLLGLDASEVELTRNNELIAIGKGSSLKRLPVFGTEPRVLFNPLHAHGQKCIVQTTSWSQCSKSCGTGISTRVTNDNPECRLVKETRICEVRPCGQPVYSSLKKGKKCSKTKKSPEPVRFTYAGCSSVKKYRPKYCGSCVDGRCCTPLQTRTVKMRFRCEDGEMFSKNVMMIQSCKCNYNCPHPNEASFRLYSLFNDIHKFRD
phosphorylation of focal adhesion proteins [1]: induces the phosphorylation of Focal Adhesion Kinase | adhesion of BASM cells [2]: induced adhesion of BASM cells | attachment morphology of limb mesenchymal cells [3]: adhered as clusters of rounded cells | cell number and DNA synthesis [4]: both increased cell number and enhanced DNA synthesis after 2 and 3 days in culture | HUVE cell spreading [5]: induces HUVE cell spreading to approximately the same extent as fibronectin | migrating cells, chemoattractant without mannose-6-phosphate [6]: approximately 48 cells | binding to macrophages [7]: binds to macrophages via yet another integrin, the αMβ2 integrin
